The values that follow come from article PMC9233703.

The target in assay [1] is bovine brain tubulin polymerized into the microtubule lattice (bovine) (UniProt Q6B856). Nature of the assay: motor-pulling assay (TIRF microscopy); taxol-stabilized microtubules, 10 μM taxol, held by digoxigenin-labeled tubulin; 3.8 kb biotinylated DNA linker; 6 nM biotinylated kinesin-1; 1 mM ATP, 28 °C.
For assay [2] the target is unchanged. The assay can be described thus: optical tweezer force spectroscopy; taxol-stabilized microtubules copolymerized with biotinylated tubulin, affixed to neutravidin-coated coverslip; single tubulin pulled by its α-tubulin CTT through an 8.2 kb DNA linker and an anti-digoxigenin bead, perpendicular to the microtubule axis; constant pulling velocity 0.32 μm/s; BRB80, 10 μM taxol.

The target is the same in assay [3]. The assay can be described thus: motor-pulling assay (TIRF microscopy); GDP-microtubules with GMPCPP-tubulin caps held on the surface by anti-digoxigenin antibody; tubulin with 3.8 kb biotinylated DNA linker pulled along the microtubule axis by biotinylated kinesin-1 (0.5-9 nM) joined via neutravidin; 1 mM ATP, SYTOX Green, 28 °C.

“bovine brain tubulin labeled with an oligo-DNA handle on the α-tubulin C-terminal tail (SSL method), hybridized to a long DNA linker (from UniProt Q6B856 1-445) (complex)”: the median rupture time under pulling by kinesin-1 (6 nM) in assay [1] came out at 18 s. Moreover, in assay [2], the force typically required to remove tubulin from the lattice came out at 30 pN; the lifetime in the lattice at zero force estimated from the rupture force histogram (Dudko method, single-step extraction) was 40 s; the rupture force is 33.8 pN. In assay [3], the decay time of the rupture-time histogram (4.5-9 nM biotinylated kinesin) turned out to be 8.8 s, the median rupture time under pulling by kinesin-1 (plateau at high kinesin concentration) was determined as 8 s and the percentage of DNA remained on the microtubules after 5 min with 6 nM biotinylated kinesin-1 stood at 59%.
